Earlier results on 1 molecule are cited in patent publication US20260297164A1, “ANTI-FIBROTIC PEPTIDES AND USES THEREOF” (Deackt, Inc., priority 2021, published 2026).

The subject of the data set is CD148. To be noted: extracellular proteins; cited from earlier work.

B1: syndecan-2: known extracellular protein that can bind to CD148 (protein, UniProt P34741 19-201, looked up)
Syndecan-2: ESRAELTSDKDMYLDNSSIEEASGVYPIDDDDYASASGSGADEDVESPELTTSRPLPKILLTSAAPKVETTTLNIQNKIPAQTKSPEETDKEKVHLSDSERKMDPAEEDTNVYTEKHSDSLFKRTEVLAAVIAGGVIGFLFAIFLILLLVYRMRKKDEGSYDLGERKPSSAAYQKAPTKEFYA
Regarding B1, the “binding to CD148 and activation of PTP activity” value was “can bind to CD148 and activate PTP activity”.
